According to PMC9712106:

Key:
[1] = molecular target: PfRipr (residues 20 to 1086) (P. falciparum) (UniProt O97302); assay: BLI; PfRipr or PfPTRAMP at 20 μg/ml immobilised on Anti-Penta-His (His1K) biosensors, twofold dilution series of PTRAMP–CSS or PfCSS; 25 °C, PBS pH 7.4, 0.1% BSA, 0.02% Tween-20; 1:1 model
[2] = molecular target: PfPTRAMP (residues 25 to 309) with a C-terminal His-tag (P. falciparum); assay: as above

Q: For “PTRAMP–CSS heterodimer (disulfide-linked PfPTRAMP 42–309 and PfCSS 20–290) (complex)”, which Kd [1] is on record?
A: 3.6 µM

Q: “PfCSS (residues 20 to 290) (domain or fragment)” was tested. Which Kd [1] did it give?
A: 1.1 µM

Q: And the Kd [2]?
A: 19 µM
